Patent publication US20250101453A1, “METHODS OF PARTHENOGENIC HAPLOID INDUCTION AND HAPLOID CHROMOSOME DOUBLING” (PIONEER HI-BRED INTERNATIONAL, INC., priority 2022, published 2025)
Values joined by “and” are separate entries in the source; they are usually repeats but may differ in a detail not shown here. Equal entries are not always repeated.

Experiments:
[1] = chemical chromosome doubling, Frei et al. 2018; cited from earlier work
[2] = test system: Background 1 (PHR03 x PH184C); experiment: Haploid induction cross, haploid embryos scored by absence of paternal YFP, Background 1; format: in vivo, Zea mays
Experimental: (§1) The ears of the transgenic female parent plants were shoot-bagged before silk emergence to avoid any foreign pollen contamination. The silks of the donor ears were pollinated with viable pollen grains collected from the anthers of a haploid inducer parent plant, constituting a “haploid induction cross”.
(§2) Immature ears were harvested approximately 18 days after pollination, surface sterilized in 30% Clorox bleach plus 0.5% Micro detergent for 20 minutes and washed twice with sterile water. Immature embryos obtained from each donor ear comprising a biological replicate for a unique transformation event were plated on a petri dish containing 605B resting medium and incubated at 28° C. under dark conditions for 12-24 hours.
Using the methods described in Examples 2 and 3, T0 transgenic plants hemizygous for RV048759 (SEQ ID NO: 16) or RV027603 (SEQ ID NO: 7) were obtained from a population of transformed immature diploid embryos from two different genetic backgrounds. The first genetic background (hereinafter “Background 1”) was “PHR03 x PH184C” and the second genetic background (hereinafter “Background 2”) was X08D492.
The T0 transgenic plants hemizygous for RV048759 were used as female parent plants and the donor ears fertilized with pollen provided by a pollen donor. The silks of the donor ears were pollinated with viable pollen grains collected from the anthers of a haploid inducer parent plant, constituting a “haploid induction cross”.
(§3) A total of 13 unique events for RV048759 and a total of 7 unique events for RV027603 were analyzed in Background 1. A total of 13 unique events for RV048759 and a total of 11 unique events for RV027603 were analyzed in Background 2.

[3] = test system: Background 2 (X08D492); experiment: Haploid induction cross, haploid embryos scored by absence of paternal YFP, Background 2; format: in vivo, Zea mays
Experimental: as §1, §2
Using the methods described in Examples 2 and 3, T0 transgenic plants hemizygous for RV048759 (SEQ ID NO: 16) or RV027603 (SEQ ID NO: 7) were obtained from a population of transformed immature diploid embryos from two different genetic backgrounds. The first genetic background (hereinafter “Background 1”) was “PHR03 x PH184C” and the second genetic background (hereinafter “Background 2”) was X08D492. […]
as §3

[4] = test system: unfertilized egg cell; experiment: In vivo genetic chromosome doubling: fertility (mature seed set) of self-pollinated regenerated T1 (D0) plants, Example 3; set-up: species or system Zea mays
From the text: Using the methods described in Example 2, T0 transgenic plants hemizygous for RV027603 (SEQ ID NO: 7) were obtained from a population of transformed immature diploid embryos. […] Using methods known in the art, single copy T0 plants were identified and grown to maturity. Upon the transition to flowering, the T0 plants were used as female parent plants to provide a donor ear.
as §1, §2
A total of 8 unique events for RV027603 were analyzed. Per event, two groups of haploid embryos were obtained given the hemizygous T-DNA from RV027603 inherited from the maternal plant. A first group of haploid embryos lacking inheritance of T-DNA from RV027603 was used to regenerate “null T1 plants”. A second group of haploid embryos that inherited a T-DNA from RV027603 was used to regenerate “hemizygous T1 plants”. No artificial chromosome doubling treatment, for example a chemical chromosome doubling treatment or agent, was provided to any of the haploid embryos during the experiment.
To assess the efficacy of in vivo genetic chromosome doubling in response to ZM-ODP2-(266-669) activity, the proportion of regenerated T1 plants capable of producing intact, mature seed was evaluated. The ear of each D0 (T1) plant for both the “null” or “hemizygous” T1 groups were shoot-bagged before silk emergence to avoid any foreign pollen contamination. The silks of the ears for each D0 (T1) plant were self-pollinated with pollen grains collected from the anthers of each D0 (T1) plant. After self-fertilization, the plants were grown to physiological maturity, the ears harvested, and D1 (T2) seed was counted per donor ear from each null and hemizygous plant per group per event. Seed counts for fertile plants were sorted into three categories: a low-range consisting of 1-24 kernels/ear, a medium-range consisting of 25-39 kernels/ear, and a high-range consisting of 40 or more kernels/ear.

COc1cc2c(c(OC)c1OC)-c1ccc(OC)c(=O)cc1[C@@H](NC(C)=O)CC2 [colchicine, (S)-N-(5,6,7,9-tetrahydro-1,2,3,10-tetramethoxy-9-oxobenzo (a)heptalen-7-yl) acetamide]
fertility rates for self-pollinated D0 plants [1]: 15-20%

B1: ZM-ODP2-(266-668):At-CBF1a: fusion protein (SEQ ID NO: 15) of truncated ZM-ODP2 and C-repeat/DRE binding factor domain At-CBF1a; expressed from plasmid RV048759 under PvEC1 promoter (protein)
chain: MDTFGQRTSIYRGVTRHRWTGRYEAHLWDNSCRREGQTRKGRQVYLGGYDKEEKAARAYDLAALKYWGATTTTNFPVSNYEKELEDMKHMTRQEFVASLRRKSSGFSRGASIYRGVTRHHQHGRWQARIGRVAGNKDLYLGTFSTQEEAAEAYDIAAIKFRGLNAVTNFDMSRYDVKSILDSSALPIGSAAKRLKEAEAAASAQHHHAGVVSYDVGRIASQLGDGGALAAAYGAHYHGAAWPTIAFQPGAASTGLYHPYAQQPMRGGGWCKQEQDHAVIAAAHSLQDLHHLNLGAAGAHDFFSAGQQAAAAAMHGLGSIDSASLEHSTGSNSVVYNGGVGDSNGASAVGGSGGGYMMPMSAAGATTTSAMVSHEQVHARAYDEAKQAAQMGYESYLVNAENNGGGGGGGSGGGGSGGGGSTCAKDIQKAAAEAALAFQDETCDTTTTNHGLDMEETMVEAIYTPEQSEGAFYMDEETMFGMPTLLDNMAEGMLLPPPSVQWNHNYDGEGDGDVSLWSY
average haploid induction rate [2]: 31.3%
average haploid induction rate [3]: 33.9%

B2: ZM-ODP2-(266-669): truncated maize Ovule Development Protein 2 polypeptide (SEQ ID NO: 2) encoded by ZM-ODP2 (TR5); expressed from plasmid RV027603 under egg cell promoter (protein)
chain: MDTFGQRTSIYRGVTRHRWTGRYEAHLWDNSCRREGQTRKGRQVYLGGYDKEEKAARAYDLAALKYWGATTTTNFPVSNYEKELEDMKHMTRQEFVASLRRKSSGFSRGASIYRGVTRHHQHGRWQARIGRVAGNKDLYLGTFSTQEEAAEAYDIAAIKFRGLNAVTNFDMSRYDVKSILDSSALPIGSAAKRLKEAEAAASAQHHHAGVVSYDVGRIASQLGDGGALAAAYGAHYHGAAWPTIAFQPGAASTGLYHPYAQQPMRGGGWCKQEQDHAVIAAAHSLQDLHHLNLGAAGAHDFFSAGQQAAAAAMHGLGSIDSASLEHSTGSNSVVYNGGVGDSNGASAVGGSGGGYMMPMSAAGATTTSAMVSHEQVHARAYDEAKQAAQMGYESYLVNAENNGGG
modifications: Zea mays
notes: expressed from plasmid RV027603 under egg cell promoter
self-pollinated hemizygous D0/T1 plants that produced 40 or more D1/T2 kernels ([4]; % of the hemizygous T1 group): 83%
average level of fertile hemizygous T1 plants ([4]; hemizygous T1 plants, across 8 events of RV027603, self-pollinated, no artificial chromosome doubling treatment): 14.9%
level of fertile null T1 plants (produced mature, intact seed) ([4]; null T1 plants lacking T-DNA of RV027603, same 8 events, self-pollinated): 3.2% and 3.17%
self-pollinated hemizygous D0/T1 plants that produced 40 or more D1/T2 kernels (count) ([4]; of 38 self-pollinated D0/T1 plants): 31
average haploid induction rate [2]: 3.5%
Haploid Induction Rate (%) ([2]; per event): 2.5% and 2.4% and 1.9% and 4.8% and 0.6% and 5.0% and 7.0%
average haploid induction rate [3]: 15.1%
